Measured values taken from publication PMC9636267 (2022).
Where a chain is given by its changes, count along the chain named.

T1: HCoV-229E S ectodomain (17–1115 aa), 229E S trimer (human coronavirus 229E, UniProt P15423 17-1115)
T1 chain: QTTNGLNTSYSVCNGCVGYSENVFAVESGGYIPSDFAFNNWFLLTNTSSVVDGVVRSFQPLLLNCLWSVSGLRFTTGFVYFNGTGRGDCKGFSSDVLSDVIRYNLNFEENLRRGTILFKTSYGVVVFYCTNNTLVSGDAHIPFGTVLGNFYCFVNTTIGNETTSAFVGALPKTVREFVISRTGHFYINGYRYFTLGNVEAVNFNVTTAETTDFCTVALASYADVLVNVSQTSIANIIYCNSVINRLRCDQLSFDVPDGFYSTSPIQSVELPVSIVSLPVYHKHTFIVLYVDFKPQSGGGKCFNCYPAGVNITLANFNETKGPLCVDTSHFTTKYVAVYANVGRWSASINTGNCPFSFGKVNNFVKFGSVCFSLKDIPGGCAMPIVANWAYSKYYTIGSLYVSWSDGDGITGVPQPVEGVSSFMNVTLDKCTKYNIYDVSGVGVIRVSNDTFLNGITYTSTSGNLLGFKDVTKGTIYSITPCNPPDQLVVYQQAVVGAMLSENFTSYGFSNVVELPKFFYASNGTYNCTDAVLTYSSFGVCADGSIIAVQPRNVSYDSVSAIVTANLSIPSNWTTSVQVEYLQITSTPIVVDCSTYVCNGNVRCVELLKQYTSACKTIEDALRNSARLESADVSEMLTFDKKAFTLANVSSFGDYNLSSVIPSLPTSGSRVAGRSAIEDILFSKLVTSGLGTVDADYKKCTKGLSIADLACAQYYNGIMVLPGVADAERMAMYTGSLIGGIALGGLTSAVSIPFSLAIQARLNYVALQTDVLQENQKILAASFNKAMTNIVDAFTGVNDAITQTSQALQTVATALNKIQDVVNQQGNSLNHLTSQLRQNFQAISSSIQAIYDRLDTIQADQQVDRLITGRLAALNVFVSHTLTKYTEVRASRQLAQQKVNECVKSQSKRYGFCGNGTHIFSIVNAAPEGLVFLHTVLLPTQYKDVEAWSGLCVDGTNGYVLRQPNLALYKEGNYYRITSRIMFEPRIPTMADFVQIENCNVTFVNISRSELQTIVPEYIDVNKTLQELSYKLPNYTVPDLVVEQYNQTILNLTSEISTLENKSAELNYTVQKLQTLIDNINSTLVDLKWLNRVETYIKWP

T2: HCoV-229E S1 subunit (17–560 aa) (human coronavirus 229E, UniProt P15423 17-560)
T2 chain: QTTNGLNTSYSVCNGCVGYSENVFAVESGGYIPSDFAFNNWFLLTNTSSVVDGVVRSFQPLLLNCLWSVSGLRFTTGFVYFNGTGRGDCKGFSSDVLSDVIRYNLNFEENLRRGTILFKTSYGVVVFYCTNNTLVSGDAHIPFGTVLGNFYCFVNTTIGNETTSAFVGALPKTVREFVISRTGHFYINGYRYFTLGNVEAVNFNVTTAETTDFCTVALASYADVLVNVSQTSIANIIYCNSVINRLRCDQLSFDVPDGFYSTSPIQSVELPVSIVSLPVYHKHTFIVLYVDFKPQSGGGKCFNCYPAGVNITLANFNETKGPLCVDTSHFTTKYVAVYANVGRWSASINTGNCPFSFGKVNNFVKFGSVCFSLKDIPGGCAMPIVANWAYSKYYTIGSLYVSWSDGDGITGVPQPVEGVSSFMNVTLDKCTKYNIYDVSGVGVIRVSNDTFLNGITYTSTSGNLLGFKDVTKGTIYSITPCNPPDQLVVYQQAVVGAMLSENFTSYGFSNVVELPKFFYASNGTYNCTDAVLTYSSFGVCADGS

T3: HCoV-229E NTD (17–265 aa) (human coronavirus 229E, UniProt P15423 17-265)
T3 chain: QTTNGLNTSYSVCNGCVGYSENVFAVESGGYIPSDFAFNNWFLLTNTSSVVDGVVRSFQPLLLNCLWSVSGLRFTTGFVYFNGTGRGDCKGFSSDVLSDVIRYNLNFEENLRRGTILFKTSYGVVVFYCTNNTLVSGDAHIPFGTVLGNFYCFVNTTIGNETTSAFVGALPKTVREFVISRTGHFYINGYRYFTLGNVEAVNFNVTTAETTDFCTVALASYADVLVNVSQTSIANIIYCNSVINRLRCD

T4: HCoV-NL63 S ectodomain (16–1291 aa) (human coronavirus NL63, UniProt Q6Q1S2 16-1291)
T4 chain: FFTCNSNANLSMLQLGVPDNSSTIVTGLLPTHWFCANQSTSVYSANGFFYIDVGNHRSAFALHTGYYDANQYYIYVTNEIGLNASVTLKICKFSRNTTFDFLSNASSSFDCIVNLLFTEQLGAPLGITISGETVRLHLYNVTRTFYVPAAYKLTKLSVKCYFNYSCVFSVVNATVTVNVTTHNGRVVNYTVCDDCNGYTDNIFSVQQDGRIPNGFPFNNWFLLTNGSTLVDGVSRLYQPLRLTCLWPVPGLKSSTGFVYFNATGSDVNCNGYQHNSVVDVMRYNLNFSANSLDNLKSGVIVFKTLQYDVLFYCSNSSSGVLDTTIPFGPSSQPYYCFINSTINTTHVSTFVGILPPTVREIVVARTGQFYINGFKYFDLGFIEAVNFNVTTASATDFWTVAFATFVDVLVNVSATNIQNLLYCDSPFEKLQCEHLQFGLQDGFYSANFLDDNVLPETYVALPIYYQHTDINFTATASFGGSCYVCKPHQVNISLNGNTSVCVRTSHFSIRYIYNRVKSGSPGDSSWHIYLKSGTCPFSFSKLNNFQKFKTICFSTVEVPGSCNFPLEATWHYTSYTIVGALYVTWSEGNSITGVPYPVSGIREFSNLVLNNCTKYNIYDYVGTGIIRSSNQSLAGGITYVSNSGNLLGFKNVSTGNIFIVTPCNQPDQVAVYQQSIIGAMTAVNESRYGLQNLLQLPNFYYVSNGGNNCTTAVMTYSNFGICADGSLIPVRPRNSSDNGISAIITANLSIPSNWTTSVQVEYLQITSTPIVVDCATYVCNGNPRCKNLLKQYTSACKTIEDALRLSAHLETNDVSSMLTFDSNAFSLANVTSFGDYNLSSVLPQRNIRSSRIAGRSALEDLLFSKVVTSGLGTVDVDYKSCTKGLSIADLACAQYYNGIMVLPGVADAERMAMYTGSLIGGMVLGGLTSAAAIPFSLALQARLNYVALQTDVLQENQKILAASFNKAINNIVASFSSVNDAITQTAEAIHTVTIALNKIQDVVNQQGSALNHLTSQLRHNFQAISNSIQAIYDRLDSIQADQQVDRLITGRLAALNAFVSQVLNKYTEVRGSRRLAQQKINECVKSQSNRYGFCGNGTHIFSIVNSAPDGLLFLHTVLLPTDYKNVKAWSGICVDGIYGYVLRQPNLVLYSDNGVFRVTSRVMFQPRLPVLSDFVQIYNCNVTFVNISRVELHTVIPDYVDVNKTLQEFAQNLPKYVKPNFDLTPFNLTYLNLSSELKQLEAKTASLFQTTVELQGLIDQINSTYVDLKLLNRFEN

B1: Fab B10 (Fab, V domains shown)
VH: EVQLVESGGGLVQPGGSLRLSCAASGFNLSSSSMHWVRQAPGKGLEWVAYIYPSYSSTYYADSVKGRFTISADTSKNTAYLQMNSLRAEDTAVYYCARASGHFWAYGFDYWGQGTLVTVSS
VL: DIQMTQSPSSLSASVGDRVTITCRASQSVSSAVAWYQQKPGKAPKLLIYSASSLYSGVPSRFSGSRSGTDFTLTISSLQPEDFATYYCQQYSYSGPFTFGQGTKVEIK
B2: Fab D04 (Fab, V domains shown)
VH: EVQLVESGGGLVQPGGSLRLSCAASGFNLSSYYIHWVRQAPGKGLEWVASISPYSSSTYYADSVKGRFTISADTSKNTAYLQMNSLRAEDTAVYYCARWYSPSYGWYWPYASGAGGLDYWGQGTLVTVSS
VL: B1 VL with Y91S, Y93P, S94H, G95Y, P96L, F97I
B3: Fab B09 (Fab, V domains shown)
VH: EVQLVESGGGLVQPGGSLRLSCAASGFNLSYSSIHWVRQAPGKGLEWVAYIYPYYGSTYYADSVKGRFTISADTSKNTAYLQMNSLRAEDTAVYYCARSWSPSSSYPGYGGLDYWGQGTLVTVSS
VL: DIQMTQSPSSLSASVGDRVTITCRASQSVSSAVAWYQQKPGKAPKLLIYSASSLYSGVPSRFSGSRSGTDFTLTISSLQPEDFATYYCQQSWSYYGSLFTFGQGTKVEIK
B4: Fab A01 (Fab, V domains shown)
VH: EVQLVESGGGLVQPGGSLRLSCAASGFNISSSYIHWVRQAPGKGLEWVASIYSYYSSTSYADSVKGRFTISADTSKNTAYLQMNSLRAEDTAVYYCARGGYAFYGYGSPHSWYALDYWGQGTLVTVSS
VL: B3 VL with S91W, S93P, Y94G, Y95S, G96W, S97G, L98P, F99I
B5: Fab A11 (Fab, V domains shown)
VH: EVQLVESGGGLVQPGGSLRLSCAASGFNIYSSYIHWVRQAPGKGLEWVASISSSYGYTYYADSVKGRFTISADTSKNTAYLQMNSLRAEDTAVYYCARGHGWAYVWSSYYPAGAFALDYWGQGTLVTVSS
VL: DIQMTQSPSSLSASVGDRVTITCRASQSVSSAVAWYQQKPGKAPKLLIYSASSLYSGVPSRFSGSRSGTDFTLTISSLQPEDFATYYCQQSYALITFGQGTKVEIK
B6: Fab D12 (Fab, V domains shown)
VH: EVQLVESGGGLVQPGGSLRLSCAASGFNLSSYSMHWVRQAPGKGLEWVAYISPYYSYTSYADSVKGRFTISADTSKNTAYLQMNSLRAEDTAVYYCARVWYHSYPGWVPWGSWAFDYWGQGTLVTVSS
VL: DIQMTQSPSSLSASVGDRVTITCRASQSVSSAVAWYQQKPGKAPKLLIYSASSLYSGVPSRFSGSRSGTDFTLTISSLQPEDFATYYCQQAYYSPITFGQGTKVEIK
B7: Fab A10 (Fab, V domains shown)
VH: EVQLVESGGGLVQPGGSLRLSCAASGFNISSYYMHWVRQAPGKGLEWVAYISPYSGYTYYADSVKGRFTISADTSKNTAYLQMNSLRAEDTAVYYCARAHYPYHGSYWGLDYWGQGTLVTVSS
VL: B6 VL with Y92G, S94V

Target: T1, HCoV-229E S ectodomain (17–1115 aa), …
Experiment: SPR

| Binder | koff [s⁻¹] |
| --- | --- |
| B1 | 0.00044 |
| B2 | 0.0012 |
| B3 | 0.00015 |
| B4 | 0.0017 |
| B5 | 0.0034 |
| B6 | 0.0018 |
| B7 | 0.00021 |

Target: T1, HCoV-229E S ectodomain (17–1115 aa), …
Experiment: SPR
Remark: another data set of the same source

| Binder | Kd [nM] |
| --- | --- |
| B1 | 2.5 |
| B2 | 2 |
| B3 | 33 |
| B4 | 32 |
| B5 | 9.4 |
| B6 | 3.9 |
| B7 | 6.3 |

Target: T2, HCoV-229E S1 subunit (17–560 aa)
Experiment: SPR

| Binder | Kd [nM] |
| --- | --- |
| B1 | 2.3 |
| B2 | 2 |
| B3 | 32 |
| B4 | 17 |
| B5 | 3.2 |
| B6 | 1.1 |
| B7 | 3.6 |

Target: T3, HCoV-229E NTD (17–265 aa)
Experiment: SPR

| Binder | Kd [nM] |
| --- | --- |
| B1 | 5.5 |
| B2 | 7.7 |
| B3 | 235 |
| B4 | 31 |
| B5 | 8.8 |
| B6 | 3.2 |
| B7 | 4.6 |

Target: T4, HCoV-NL63 S ectodomain (16–1291 aa)
Experiment: SPR

| Binder | Kd [nM] |
| --- | --- |
| B6 | 8400 |

Target: T4, HCoV-NL63 S ectodomain (16–1291 aa)
Experiment: SPR
Remark: another data set of the same source

| Binder | Kd [nM] |
| --- | --- |
| B6 | 3800 |

Target: T2, HCoV-229E S1 subunit (17–560 aa)
Experiment: SPR
Remark: another data set of the same source

| Binder | koff [s⁻¹] |
| --- | --- |
| B1 | 0.00031 |
| B2 | 0.0012 |
| B3 | 0.00064 |
| B4 | 0.00068 |
| B5 | 0.0018 |
| B6 | 0.00086 |
| B7 | 0.00083 |

Target: T3, HCoV-229E NTD (17–265 aa)
Experiment: SPR
Remark: another data set of the same source

| Binder | koff [s⁻¹] |
| --- | --- |
| B1 | 0.00069 |
| B2 | 0.0026 |
| B3 | 0.00037 |
| B4 | 0.00076 |
| B5 | 0.004 |
| B6 | 0.00043 |
| B7 | 0.0015 |
